Results taken from publication PMC8454987 (PLoS Biology, 2021).

How the values were obtained:
[1] = biological target: HHV-8 gH/gL ectodomain complex (insect cell, for crystallization) (human herpesvirus 8 (HHV-8)) (UniProt F5HAK9); assay: SEC-MALS
[2] = biological target: T1, EphA2 ectodomain (res. 27 to 534), wild type (human, UniProt P29317 27-534); assay: BLI; settings: both partners purified
T1 construct: also called WT EphA2 ectodomain

[3] = biological target: EphA2 LBD (res. 27 to 202), wild type (human, UniProt P29317 27-202); assay: BLI; settings: both partners purified
crystal structure = biological target: the molecule itself; assay: crystal structure

Chain of HHV-8 gH/gL ectodomain complex (insect cell, for crystallization) (human herpesvirus 8 (HHV-8)) (F5HAK9 whole entry, looked up, the tested form may be a part, one chain of several): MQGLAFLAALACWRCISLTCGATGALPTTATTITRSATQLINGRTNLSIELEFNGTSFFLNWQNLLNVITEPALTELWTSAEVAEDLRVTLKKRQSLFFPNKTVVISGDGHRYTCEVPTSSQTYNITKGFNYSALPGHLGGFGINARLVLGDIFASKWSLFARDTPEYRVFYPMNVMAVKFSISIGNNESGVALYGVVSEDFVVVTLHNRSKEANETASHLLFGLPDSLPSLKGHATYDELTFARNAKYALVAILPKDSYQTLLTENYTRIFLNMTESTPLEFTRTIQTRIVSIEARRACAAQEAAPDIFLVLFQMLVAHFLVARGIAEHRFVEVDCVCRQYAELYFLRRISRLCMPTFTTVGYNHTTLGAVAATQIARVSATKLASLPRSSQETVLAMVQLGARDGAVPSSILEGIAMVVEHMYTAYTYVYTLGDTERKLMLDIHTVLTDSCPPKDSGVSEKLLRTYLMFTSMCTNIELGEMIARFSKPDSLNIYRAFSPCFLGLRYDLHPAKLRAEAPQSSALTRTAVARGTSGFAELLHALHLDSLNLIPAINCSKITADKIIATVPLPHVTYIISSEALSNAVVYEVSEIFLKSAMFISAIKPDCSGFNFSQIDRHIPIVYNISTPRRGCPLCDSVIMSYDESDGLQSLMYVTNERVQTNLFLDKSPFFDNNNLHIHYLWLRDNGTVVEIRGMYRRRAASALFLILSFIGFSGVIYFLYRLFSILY
T1 sequence (P29317 27-534): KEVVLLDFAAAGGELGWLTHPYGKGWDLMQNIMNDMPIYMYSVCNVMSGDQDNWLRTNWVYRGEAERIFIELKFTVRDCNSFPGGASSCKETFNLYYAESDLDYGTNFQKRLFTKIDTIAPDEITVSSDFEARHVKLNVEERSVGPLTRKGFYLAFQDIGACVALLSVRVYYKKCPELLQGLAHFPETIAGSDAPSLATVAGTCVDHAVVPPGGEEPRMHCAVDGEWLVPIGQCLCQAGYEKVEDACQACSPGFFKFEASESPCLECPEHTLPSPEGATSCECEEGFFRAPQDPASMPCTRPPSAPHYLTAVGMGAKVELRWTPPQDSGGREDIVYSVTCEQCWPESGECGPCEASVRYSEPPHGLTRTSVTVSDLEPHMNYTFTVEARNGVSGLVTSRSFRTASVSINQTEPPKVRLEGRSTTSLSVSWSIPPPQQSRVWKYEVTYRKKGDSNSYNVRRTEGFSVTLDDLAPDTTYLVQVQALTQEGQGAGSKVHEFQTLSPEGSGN

## EphA2 ectodomain (res. 27 to 534), wild type (from UniProt P29317 27-534) (domain or fragment)
[1]
  stoichiometry N: 1

## EphA2 ligand-binding domain (residues 23 to 202), insect cell (from UniProt P29317 23-202) (domain or fragment)
[1]
  stoichiometry N: 1

B1: HHV-8 gH^his/gL^st wild type (mammalian cells) (complex)
chain 1: LPTTATTITRSATQLINGRTNLSIELEFNGTSFFLNWQNLLNVITEPALTELWTSAEVAEDLRVTLKKRQSLFFPNKTVVISGDGHRYTCEVPTSSQTYNITKGFNYSALPGHLGGFGINARLVLGDIFASKWSLFARDTPEYRVFYPMNVMAVKFSISIGNNESGVALYGVVSEDFVVVTLHNRSKEANETASHLLFGLPDSLPSLKGHATYDELTFARNAKYALVAILPKDSYQTLLTENYTRIFLNMTESTPLEFTRTIQTRIVSIEARRACAAQEAAPDIFLVLFQMLVAHFLVARGIAEHRFVEVDCVCRQYAELYFLRRISRLCMPTFTTVGYNHTTLGAVAATQIARVSATKLASLPRSSQETVLAMVQLGARDGAVPSSILEGIAMVVEHMYTAYTYVYTLGDTERKLMLDIHTVLTDSCPPKDSGVSEKLLRTYLMFTSMCTNIELGEMIARFSKPDSLNIYRAFSPCFLGLRYDLHPAKLRAEAPQSSALTRTAVARGTSGFAELLHALHLDSLNLIPAINCSKITADKIIATVPLPHVTYIISSEALSNAVVYEVSEIFLKSAMFISAIKPDCSGFNFSQIDRHIPIVYNISTPRRGCPLCDSVIMSYDESDGLQSLMYVTNERVQTNLFLDKSPFFDNNNLHIHYLWLRDNGTVVEIRGMYRRRAAS
chain 2: YVALPCCAIQASAASTLPLFFAVHSIHFADPNHCNGVCIAKLRSKTGDITVETCVNGFNLRSFLVAVVRRLGSWASQENLRLLWYLQRSLTAYTVGFNATTADSSIHNVNIIIISVGKAMNRTGSVSGSQTRAKSSSRRAHAGQKGK
[2]
  Kd: < 1 nM
[3]
  Kd: < 1 nM

B2: EphA2 ligand-binding domain (residues 23 to 202), insect cell (domain or fragment, human, UniProt P29317 23-202, looked up)
chain: AAQGKEVVLLDFAAAGGELGWLTHPYGKGWDLMQNIMNDMPIYMYSVCNVMSGDQDNWLRTNWVYRGEAERIFIELKFTVRDCNSFPGGASSCKETFNLYYAESDLDYGTNFQKRLFTKIDTIAPDEITVSSDFEARHVKLNVEERSVGPLTRKGFYLAFQDIGACVALLSVRVYYKKCP
notes: also called EphA2 LBD; LBD
Crystal structure
  binding result: binds
